The record followed here is patent US20250011363A1, “OPTIMIZED SHORTENED PEPTIDE THAT BINDS TO ACETYLCHOLINE RECEPTOR, AND USE THEREOF” (SKINMED CO., LTD., priority 2021, published 2025).

For this assay, the target named is acetylcholine receptor (Homo sapiens, UniProt P02708). Kind of assay: SPR binding affinity (RU) of optimized 5mer/6mer/7mer peptides, Examples 6-7. The settings on record: SPR, Resonance Units; peptides tested at 10 μM; 6mer-1 Bottom sequence. The gist of the method: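 SPR, peptides at 10 μM; read-out = response units (RU). Sequences drawn from top- or bottom-frequency amino acid combinations, 5mer/6mer-1/6mer-2 libraries.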
acetylcholine receptor, sequence (P02708 21-457): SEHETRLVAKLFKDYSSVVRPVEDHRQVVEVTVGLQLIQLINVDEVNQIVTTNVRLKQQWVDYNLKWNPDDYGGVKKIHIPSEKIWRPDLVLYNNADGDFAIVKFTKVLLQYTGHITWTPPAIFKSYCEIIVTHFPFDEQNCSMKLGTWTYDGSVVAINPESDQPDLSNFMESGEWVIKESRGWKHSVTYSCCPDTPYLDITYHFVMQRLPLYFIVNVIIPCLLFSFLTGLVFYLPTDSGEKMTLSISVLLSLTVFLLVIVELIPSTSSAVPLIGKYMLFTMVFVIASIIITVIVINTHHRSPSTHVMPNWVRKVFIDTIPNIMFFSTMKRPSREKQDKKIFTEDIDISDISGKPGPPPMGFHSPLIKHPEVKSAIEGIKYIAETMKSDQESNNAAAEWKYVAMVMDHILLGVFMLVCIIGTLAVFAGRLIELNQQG
A general note: In SPR one partner is held on a chip, and binding of the other changes the refractive index at the surface.

As for 6mer-1-1047 (RKATDK), the Binding affinity is listed as 30 Ru. For the substance 6mer-1-1048 (RRCMMK), the Binding affinity came to 36 Ru.

As to 6mer-1-1049 (KKDHKK), the Binding affinity was 31 Ru. Regarding 6mer-1-1050 (KKMEDR), the Binding affinity came out at 38 Ru. 6mer-1-1051 (KKKSFK): the Binding affinity turned out to be 43 Ru. For the substance 6mer-1-1052 (KRHWIR), the Binding affinity worked out at 33 Ru. For the substance 6mer-1-1053 (RKYTPK), the Binding affinity is 27 Ru. As to 6mer-1-1054 (RRMKVK), the Binding affinity turned out to be 37 Ru. As to 6mer-1-1055 (KRCNDK), the Binding affinity is listed as 40 Ru. For 6mer-1-1056 (RRNTAK), the Binding affinity was 27 Ru. Regarding 6mer-1-1057 (KRKPVR), the Binding affinity turned out to be 43 Ru. On to 6mer-1-1058 (KRFPWR), for which the Binding affinity is recorded as 21 Ru. As for 6mer-1-1059 (RRETVK), the Binding affinity was found to be 39 Ru.

Take 6mer-1-1060 (KRYNVR): the Binding affinity is 21 Ru. The result for 6mer-1-1061 (RRISIR) reads 41 Ru; that for 6mer-1-1062 (RRICMR), 27 Ru. Take 6mer-1-1063 (KKIDHK): the Binding affinity amounted to 25 Ru. The result for 6mer-1-1064 (RKPTAK) reads 41 Ru; that for 6mer-1-1065 (KRDKAK), 23 Ru. The result for 6mer-1-1066 (RKEDVK) reads 23 Ru; that for 6mer-1-1067 (RRKHWK), 38 Ru.

In the case of 6mer-1-1068 (KRYHIR), the Binding affinity was 31 Ru. For 6mer-1-1069 (KKIWAR), the Binding affinity is 23 Ru. Take 6mer-1-1070 (KKTCDK): the Binding affinity amounted to 24 Ru. In the case of 6mer-1-1071 (RKTKAK), the Binding affinity is 38 Ru. 6mer-1-1072 (KKCTPR): the Binding affinity is reported as 36 Ru. The result for 6mer-1-1073 (RKYMWK) reads 27 Ru; that for 6mer-1-1074 (KRTCGR), 24 Ru. For the substance 6mer-1-1075 (KKPSVK), the Binding affinity amounted to 38 Ru. Regarding 6mer-1-1076 (RKKEPK), the Binding affinity stood at 43 Ru.

With 6mer-1-1077 (RRKWGR), the Binding affinity is reported as 24 Ru. With 6mer-1-1078 (RRPDIK), the Binding affinity is given as 25 Ru. Consider 6mer-1-1079 (RKHPVK), for which the Binding affinity is given as 25 Ru. 6mer-1-1080 (KKHNMR): the Binding affinity is listed as 38 Ru. Regarding 6mer-1-1081 (KRPSNK), the Binding affinity is reported as 23 Ru. For the substance 6mer-1-1082 (KKTCDR), the Binding affinity turned out to be 37 Ru. The result for 6mer-1-1083 (KKNAVR) reads 36 Ru. The result for 6mer-1-1084 (KKCCPK) reads 25 Ru. In the case of 6mer-1-1085 (KREAMK), the Binding affinity was determined as 33 Ru. On to 6mer-1-1086 (RKEANK), for which the Binding affinity amounted to 22 Ru.

Consider 6mer-1-1087 (KKPWKR), for which the Binding affinity was found to be 27 Ru. For the substance 6mer-1-1088 (RRETHK), the Binding affinity is on record as 38 Ru. As to 6mer-1-1089 (RKFTKK), the Binding affinity stood at 31 Ru. With 6mer-1-1090 (KKTMWR), the Binding affinity came to 27 Ru.

Take 6mer-1-1091 (KKDDGK): the Binding affinity came to 32 Ru. Regarding 6mer-1-1092 (RKYHDK), the Binding affinity was 43 Ru.

With 6mer-1-1093 (RRKSDR), the Binding affinity was determined as 37 Ru. In the case of 6mer-1-1094 (RRMAIK), the Binding affinity is 42 Ru.

6mer-1-1095 (RRCHVK): the Binding affinity worked out at 27 Ru. The result for 6mer-1-1096 (RKPEPR) reads 23 Ru; that for 6mer-1-1097 (RKNCNK), 39 Ru; that for 6mer-1-1098 (RKKDMR), 42 Ru.

With 6mer-1-1099 (RRKTDR), the Binding affinity was 24 Ru. 6mer-1-1100 (KRMSHK): the Binding affinity was found to be 43 Ru.

Consider 6mer-1-1101 (RRECDK), for which the Binding affinity was determined as 37 Ru.

Regarding 6mer-1-1102 (KRFTKK), the Binding affinity was 35 Ru. Consider 6mer-1-1103 (KREDNK), for which the Binding affinity was 27 Ru.

Take 6mer-1-1104 (KRNSAR): the Binding affinity was determined as 28 Ru. In the case of 6mer-1-1105 (RRCTAR), the Binding affinity was 40 Ru. With 6mer-1-1106 (KRFMNK), the Binding affinity is on record as 39 Ru. Take 6mer-1-1107 (KRCPPR): the Binding affinity worked out at 36 Ru. Turning to 6mer-1-1108 (RRAHNK), the Binding affinity came to 43 Ru.

As for 6mer-1-1109 (KRCCVR), the Binding affinity came out at 41 Ru. The result for 6mer-1-1110 (RKFTER) reads 24 Ru; that for 6mer-1-1111 (RRASPR), 38 Ru. Take 6mer-1-1112 (KKDPWK): the Binding affinity came to 27 Ru. With 6mer-1-1113 (RRCTMK), the Binding affinity amounted to 28 Ru. For 6mer-1-1114 (KKFNFK), the Binding affinity is given as 38 Ru.

6mer-1-1115 (RKCAFR): the Binding affinity is 43 Ru.

With 6mer-1-1116 (KRHPFR), the Binding affinity is 35 Ru. As for 6mer-1-1117 (KKEWFR), the Binding affinity was found to be 40 Ru. 6mer-1-1118 (KKDTIK): the Binding affinity is reported as 33 Ru. As to 6mer-1-1119 (KRIWVR), the Binding affinity was determined as 31 Ru. As for 6mer-1-1120 (RRKEAK), the Binding affinity is 22 Ru. For the substance 6mer-1-1121 (KKTWWR), the Binding affinity was 28 Ru.

For 6mer-1-1122 (RRTMGR), the Binding affinity was determined as 33 Ru. In the case of 6mer-1-1123 (RRDNVK), the Binding affinity was 41 Ru. For 6mer-1-1124 (KKDEIR), the Binding affinity was 21 Ru. The result for 6mer-1-1125 (KKPTDR) reads 26 Ru; that for 6mer-1-1126 (RRHCDK), 41 Ru. 6mer-1-1127 (RKMMMK): the Binding affinity came to 34 Ru.

On to 6mer-1-1128 (KKKKPK), for which the Binding affinity worked out at 39 Ru. Consider 6mer-1-1129 (RKDHAR), for which the Binding affinity was 39 Ru. 6mer-1-1130 (RKATFR): the Binding affinity stood at 31 Ru.

Regarding 6mer-1-1131 (RKDNIK), the Binding affinity worked out at 42 Ru. Regarding 6mer-1-1132 (RRKAER), the Binding affinity came to 31 Ru. Consider 6mer-1-1133 (KKPNIK), for which the Binding affinity was 24 Ru. With 6mer-1-1134 (KRMSWK), the Binding affinity is reported as 22 Ru. As to 6mer-1-1135 (KKHTER), the Binding affinity came out at 26 Ru. For 6mer-1-1136 (KKIEIK), the Binding affinity was found to be 34 Ru. Consider 6mer-1-1137 (KRFTDK), for which the Binding affinity is recorded as 33 Ru. The result for 6mer-1-1138 (KRDCFR) reads 21 Ru. As to 6mer-1-1139 (KKMENR), the Binding affinity amounted to 36 Ru.

In the case of 6mer-1-1140 (KRATMK), the Binding affinity stood at 43 Ru.

Consider 6mer-1-1141 (KRNMHK), for which the Binding affinity is 40 Ru. With 6mer-1-1142 (KKETPR), the Binding affinity turned out to be 24 Ru.
